From patent US20210147504A1 come the findings set out here.

The target of this assay is rat ANP receptor (NPR-A) (rat) (UniProt P18910). Kind of assay: cell-based or functional assay.
Sequence of rat ANP receptor (NPR-A) (rat) (P18910 29-1057): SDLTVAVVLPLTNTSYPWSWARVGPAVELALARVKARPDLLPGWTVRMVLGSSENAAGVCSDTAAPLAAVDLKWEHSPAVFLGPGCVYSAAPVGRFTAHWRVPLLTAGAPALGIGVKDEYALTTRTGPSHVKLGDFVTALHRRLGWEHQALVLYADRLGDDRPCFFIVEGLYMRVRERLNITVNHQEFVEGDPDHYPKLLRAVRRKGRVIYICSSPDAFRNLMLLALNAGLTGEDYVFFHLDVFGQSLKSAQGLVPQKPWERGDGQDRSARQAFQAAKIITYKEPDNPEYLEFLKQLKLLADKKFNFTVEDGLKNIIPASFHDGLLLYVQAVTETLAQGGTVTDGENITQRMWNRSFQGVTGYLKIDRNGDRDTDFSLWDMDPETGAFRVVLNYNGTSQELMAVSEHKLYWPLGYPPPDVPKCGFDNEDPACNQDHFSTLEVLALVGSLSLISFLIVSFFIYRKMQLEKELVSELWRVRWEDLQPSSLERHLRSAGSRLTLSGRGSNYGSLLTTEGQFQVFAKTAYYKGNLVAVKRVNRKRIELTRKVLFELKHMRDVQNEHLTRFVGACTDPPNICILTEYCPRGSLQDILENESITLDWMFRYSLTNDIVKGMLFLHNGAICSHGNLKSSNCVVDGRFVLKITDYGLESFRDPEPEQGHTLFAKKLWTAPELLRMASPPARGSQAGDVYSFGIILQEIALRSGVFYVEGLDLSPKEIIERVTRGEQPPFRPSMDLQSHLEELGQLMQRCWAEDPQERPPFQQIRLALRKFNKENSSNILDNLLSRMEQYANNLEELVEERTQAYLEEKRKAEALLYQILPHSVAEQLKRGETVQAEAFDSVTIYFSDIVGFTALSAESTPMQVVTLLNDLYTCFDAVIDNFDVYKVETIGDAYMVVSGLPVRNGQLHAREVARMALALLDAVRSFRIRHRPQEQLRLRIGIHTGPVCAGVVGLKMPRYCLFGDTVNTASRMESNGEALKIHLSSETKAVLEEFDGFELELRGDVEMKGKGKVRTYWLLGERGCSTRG

Substance BNP (Bachem, H-5968) (peptide) came in with an EC50, fluorescence signal of rat NPR-A cGMP reporter CHO cell line (GCaMP6/CNGA2) of 2.9 nM.
